In data set [1] the target is LD78 receptor on the murine stem cell line FDCP cell mix (A4 cells) (murine). In words: displacement of 125I-LD78 from FDCP-mix A4 cells; % of wild-type activity based on IC50.
Data set [2] deals with the molecule itself. In words: self-association; sedimentation equilibrium AUC, 150 mM PBS pH7.4.

The results in this text go back to patent US6057123, “Stem cell inhibiting proteins” (British Biotech Pharmaceuticals Limited, dated 2000).

B1: LD78 Leu-Ser-Ala-Ser1>Pro Gly38>Ser Ser46>Gly (Mutant 35) (ligand)
chain: LSAPLAADTPTACCFSYTSRQIPQNFIADYFETSSQCSKPSVIFLTKRGRQVCADPSEEWVQKYVSDLELSA
As to B1, the Receptor Binding % WT in data set [1] turned out to be 3 % WT.

B2: LD78 Lys44>Glu Arg45>Gln (Mutant 2) (ligand)
chain: SLAADTPTACCFSYTSRQIPQNFIADYFETSSQCSKPGVIFLTEQSRQVCADPSEEWVQKYVSDLELSA
Molecule B2 registered a Receptor Binding % WT in data set [1] of 5 % WT.

B3: LD78 Asp26>Ala (Mutant 10) (ligand)
chain: SLAADTPTACCFSYTSRQIPQNFIAAYFETSSQCSKPGVIFLTKRSRQVCADPSEEWVQKYVSDLELSA
On to B3, for which, in data set [1], the Receptor Binding % WT is 77.4 % WT.

B4: LD78 Val39>Ala (Mutant 91) (ligand)
chain: SLAADTPTACCFSYTSRQIPQNFIADYFETSSQCSKPGAIFLTKRSRQVCADPSEEWVQKYVSDLELSA
With B4, in data set [2], the binding result was “no binding (tested: 0.5 mg/ml)”.

B5: LD78 Tyr27>Ala (Mutant 66) (ligand)
chain: SLAADTPTACCFSYTSRQIPQNFIADAFETSSQCSKPGVIFLTKRSRQVCADPSEEWVQKYVSDLELSA
As to B5, in data set [1], the Receptor Binding % WT is 47 % WT.

B6: LD78 Ser1>Ala (Mutant 54) (ligand)
chain: ALAADTPTACCFSYTSRQIPQNFIADYFETSSQCSKPGVIFLTKRSRQVCADPSEEWVQKYVSDLELSA
In data set [1], B6 yielded a Receptor Binding % WT of 145 % WT.

B7: LD78 Ile19>Ala (Mutant 80) (ligand)
chain: SLAADTPTACCFSYTSRQAPQNFIADYFETSSQCSKPGVIFLTKRSRQVCADPSEEWVQKYVSDLELSA
B7: the binding result in data set [2] was “no binding (tested: 0.5 mg/ml)”.

B8: LD78 Glu29>Arg (Mutant 28) (ligand)
chain: SLAADTPTACCFSYTSRQIPQNFIADYFRTSSQCSKPGVIFLTKRSRQVCADPSEEWVQKYVSDLELSA
For the molecule B8, the Receptor Binding % WT in data set [1] was 7.7 % WT.

B9: LD78 Phe28>Glu Arg47>Glu (Mutant 26) (ligand)
chain: SLAADTPTACCFSYTSRQIPQNFIADYEETSSQCSKPGVIFLTKRSEQVCADPSEEWVQKYVSDLELSA
B9: in data set [1], the Receptor Binding % WT was 1 % WT.

B10: human LD78 (wild type, recombinant, expressed from a synthetic gene in yeast) (ligand)
chain: SLAADTPTACCFSYTSRQIPQNFIADYFETSSQCSKPGVIFLTKRSRQVCADPSEEWVQKYVSDLELSA
In turn, B10 had a Receptor Binding % WT in data set [1] of 100 % WT.

B11: LD78 Arg17>Ser Gln18>Glu (Mutant 30) (ligand)
chain: SLAADTPTACCFSYTSSEIPQNFIADYFETSSQCSKPGVIFLTKRSRQVCADPSEEWVQKYVSDLELSA
In turn, B11 gave a Receptor Binding % WT in data set [1] of 4.2 % WT.

B12: LD78 Glu66>Ser (Mutant 52) (ligand)
chain: SLAADTPTACCFSYTSRQIPQNFIADYFETSSQCSKPGVIFLTKRSRQVCADPSEEWVQKYVSDLSLSA
As for B12, the Receptor Binding % WT in data set [1] came to 162 % WT.

B13: LD78 Ser35>Ala (Mutant 68) (ligand)
chain: SLAADTPTACCFSYTSRQIPQNFIADYFETSSQCAKPGVIFLTKRSRQVCADPSEEWVQKYVSDLELSA
For B13, the Receptor Binding % WT in data set [1] worked out at 125 % WT.

B14: LD78 Ser13>Ala (Mutant 62) (ligand)
chain: SLAADTPTACCFAYTSRQIPQNFIADYFETSSQCSKPGVIFLTKRSRQVCADPSEEWVQKYVSDLELSA
Consider B14, for which the Receptor Binding % WT in data set [1] turned out to be 66 % WT.

B15: LD78 Ile24>Ala (Mutant 38) (ligand)
chain: SLAADTPTACCFSYTSRQIPQNFAADYFETSSQCSKPGVIFLTKRSRQVCADPSEEWVQKYVSDLELSA
As to B15, the Receptor Binding % WT in data set [1] is 50 % WT.

B16: LD78 Lys44>Ser (Mutant 42) (ligand)
chain: SLAADTPTACCFSYTSRQIPQNFIADYFETSSQCSKPGVIFLTSRSRQVCADPSEEWVQKYVSDLELSA
In data set [1], B16 showed a Receptor Binding % WT of 18 % WT.

B17: LD78 Phe12>Gln (Mutant 11) (ligand)
chain: SLAADTPTACCQSYTSRQIPQNFIADYFETSSQCSKPGVIFLTKRSRQVCADPSEEWVQKYVSDLELSA
The molecule B17 registered a Receptor Binding % WT in data set [1] of 34 % WT.

B18: LD78 Arg17>Ser (Mutant 5) (ligand)
chain: SLAADTPTACCFSYTSSQIPQNFIADYFETSSQCSKPGVIFLTKRSRQVCADPSEEWVQKYVSDLELSA
Molecule B18 displayed a Receptor Binding % WT in data set [1] of 25 % WT.

B19: LD78 Asp5>Ser (Mutant 37) (ligand)
chain: SLAASTPTACCFSYTSRQIPQNFIADYFETSSQCSKPGVIFLTKRSRQVCADPSEEWVQKYVSDLELSA
For the molecule B19, the Receptor Binding % WT in data set [1] is 45 % WT.
